Results as given in the Human Domainome abundance scans (Beltran et al. 2025).
± gives the uncertainty stated by the source.

B1: F-BAR and double SH3 domains protein 1, residues 467 to 528; numbered along this chain, Q86WN1 (parent)
chain: RALPCPAHVVFRYQAGREDELTITEGEWLEVIEEGDADEWVKARNQHGEVGFVPERYLNFPD
B2: Cullin-9, residues 2234 to 2275; numbered along this chain, Q8IWT3 (parent)
chain: KRCPSCQAPIEKNEGCLHMTCAKCNHGFCWRCLKSWKPNHKD

Variants of: B1
Experiment: abundance fitness (aPCA) (normalised: wild type 0, dead -1); higher = more abundant; growth selection in yeast, the domain comes from the species named
Conditions: Homo sapiens

| Variant | abundance fitness |
| --- | --- |
| V53Y | -0.466 ± 0.084 |
| E33W | -0.629 ± 0.16 |
| Y57P | -0.613 ± 0.1 |
| A15H | -0.891 ± 0.33 |
| D62Y | -0.17 ± 0.079 |
| Q46K | 0.074 ± 0.062 |
| Q14G | -0.377 ± 0.07 |
| R56T | 0.005 ± 0.068 |
| A15D | -0.661 ± 0.45 |
| A7G | -0.328 ± 0.061 |
| C5A | -0.479 ± 0.24 |
| H8K | -0.257 ± 0.072 |
| G26T | -0.871 ± 0.2 |
| H47T | -0.172 ± 0.065 |
| F11S | 0.013 ± 0.051 |
| P6Y | -0.258 ± 0.12 |
| D19I | -0.095 ± 0.073 |
| K42R | -0.182 ± 0.058 |
| P54I | -0.426 ± 0.15 |
| T24G | -0.231 ± 0.069 |
| G48K | -0.328 ± 0.11 |
| A2N | 0.147 ± 0.12 |
| E30N | -0.208 ± 0.087 |
| T24W | -0.25 ± 0.076 |

| Variant | abundance fitness |
| --- | --- |
| Y13W | -0.167 ± 0.12 |
| D62W | -0.356 ± 0.084 |
| E55C | -0.02 ± 0.061 |
| V10N | -0.336 ± 0.24 |
| E55K | -0.02 ± 0.079 |
| D19S | 0.044 ± 0.039 |
| N59K | -0.005 ± 0.071 |
| W28E | -0.081 ± 0.14 |
| D19G | 0.159 ± 0.067 |
| G35F | -0.172 ± 0.11 |
| G16H | -0.027 ± 0.091 |
| P54W | -0.117 ± 0.063 |
| P4Y | -0.477 ± 0.15 |
| E25Q | -0.266 ± 0.24 |
| N59R | 0.066 ± 0.043 |
| Q14P | -0.636 ± 0.11 |
| Q46V | -0.088 ± 0.044 |
| D36K | 0.112 ± 0.075 |
| V9K | -0.598 ± 0.11 |
| W40N | -0.33 ± 0.15 |
| F11A | 0.11 ± 0.048 |
| R1S | -0.153 ± 0.058 |
| P61R | -0.09 ± 0.039 |
| R17C | 0.064 ± 0.067 |

| Variant | abundance fitness |
| --- | --- |
| E49D | -0.118 ± 0.11 |
| P4T | -0.136 ± 0.093 |
| F11K | 0.017 ± 0.065 |
| P6S | -0.344 ± 0.071 |
| E27K | -0.369 ± 0.12 |
| G16N | 0.113 ± 0.13 |
| F60W | -0.064 ± 0.051 |
| A37C | 0.118 ± 0.13 |
| E55L | 0.059 ± 0.04 |
| N45R | -0.941 ± 0.12 |
| Q14H | -0.071 ± 0.072 |
| V50S | -0.148 ± 0.068 |
| W40C | -0.181 ± 0.061 |
| V53C | -0.262 ± 0.081 |
| I23D | -0.739 ± 0.19 |
| T24A | -0.117 ± 0.055 |
| G48W | -0.435 ± 0.091 |
| V50Q | -0.093 ± 0.061 |
| T24I | -0.063 ± 0.12 |
| D38E | 0.101 ± 0.065 |
| L21H | -0.701 ± 0.43 |
| N59F | -0.091 ± 0.075 |
| E39K | 0.013 ± 0.072 |
| F60M | -0.223 ± 0.079 |

| Variant | abundance fitness |
| --- | --- |
| E30Q | -0.02 ± 0.066 |
| L3D | -0.486 ± 0.092 |
| P61V | 0.001 ± 0.073 |
| T22Y | -0.844 ± 0.22 |
| P4F | -0.451 ± 0.087 |
| I32C | -0.557 ± 0.15 |
| E27M | -0.653 ± 0.12 |
| E25F | -0.37 ± 0.16 |
| G48P | -0.623 ± 0.1 |
| E34N | -0.016 ± 0.2 |
| V31H | -0.709 ± 0.15 |
| F52L | 0.104 ± 0.04 |
| V31A | -0.465 ± 0.075 |
| R1K | -0.339 ± 0.094 |
| G35P | -0.371 ± 0.079 |
| V50E | 0.016 ± 0.066 |
| E55P | -0.123 ± 0.088 |
| Q14S | -0.106 ± 0.053 |
| E34H | -0.071 ± 0.12 |
| L3S | -0.193 ± 0.057 |
| L58W | -0.829 ± 0.07 |
| E33K | -0.344 ± 0.15 |
| Y57E | -0.595 ± 0.11 |
| E55T | 0.026 ± 0.054 |

| Variant | abundance fitness |
| --- | --- |
| F52V | -0.127 ± 0.039 |
| Q46T | -0.01 ± 0.062 |
| V41M | -0.199 ± 0.069 |
| R12D | -0.024 ± 0.097 |
| E25C | -0.325 ± 0.17 |
| L58M | -0.574 ± 0.11 |
| I23V | -0.014 ± 0.045 |
| R44C | -0.178 ± 0.11 |
| V53N | -0.829 ± 0.24 |
| R17K | 0.021 ± 0.077 |
| E30G | -0.801 ± 0.09 |
| P4Q | -0.553 ± 0.13 |
| H47Q | -0.026 ± 0.061 |
| A2F | 0.144 ± 0.12 |
| F52A | -0.249 ± 0.055 |
| V53R | -0.662 ± 0.065 |
| A37F | -0.023 ± 0.12 |
| F11M | 0.141 ± 0.053 |
| E39N | 0.227 ± 0.092 |
| V53W | -1.03 ± 0.16 |
| E39F | 0.042 ± 0.079 |
| A15P | -0.374 ± 0.078 |
| V9W | -0.902 ± 0.13 |
| A2Y | 0.389 ± 0.14 |

| Variant | abundance fitness |
| --- | --- |
| F52Q | -0.259 ± 0.071 |
| E20F | -0.284 ± 0.078 |
| F52Y | 0.093 ± 0.085 |
| A15T | -0.714 ± 0.13 |
| W40I | -0.139 ± 0.16 |
| R1Y | -0.105 ± 0.081 |
| G35Y | -0.223 ± 0.11 |
| N59C | -0.036 ± 0.093 |
| F60C | -0.275 ± 0.065 |
| W28F | 0.134 ± 0.086 |
| Y57Q | -0.292 ± 0.089 |
| V31R | -0.743 ± 0.069 |
| A15C | -0.536 ± 0.097 |
| R56V | -0.096 ± 0.057 |
| K42N | -0.575 ± 0.23 |
| N45T | -0.402 ± 0.11 |
| Q14V | -0.14 ± 0.049 |
| E39C | -0.103 ± 0.11 |
| F11Y | 0.032 ± 0.1 |
| C5Y | -0.215 ± 0.077 |
| E39V | -0.184 ± 0.054 |
| W28T | -0.053 ± 0.081 |
| V10R | -0.098 ± 0.057 |
| W28K | -0.004 ± 0.1 |

| Variant | abundance fitness |
| --- | --- |
| V50A | -0.211 ± 0.065 |
| T24F | -0.247 ± 0.082 |
| K42Q | -0.129 ± 0.074 |
| E20W | -0.934 ± 0.14 |
| R17D | -0.173 ± 0.078 |
| E18Q | 0.01 ± 0.079 |
| Y13N | -0.38 ± 0.089 |
| R17A | -0.032 ± 0.068 |
| Q46L | -0.056 ± 0.045 |
| T24N | -0.212 ± 0.15 |
| E18V | -0.134 ± 0.049 |
| R1Q | -0.294 ± 0.22 |
| G48L | -0.423 ± 0.059 |
| V41S | -0.73 ± 0.11 |
| G16Y | 0.497 ± 0.18 |
| R17Q | -0.117 ± 0.088 |
| R12I | -0.792 ± 0.17 |
| Y13L | -0.595 ± 0.077 |

Variants of: B2
Experiment: as above
Conditions: Homo sapiens

| Variant | abundance fitness |
| --- | --- |
| CRCPSCQAPIEKNEGCLHMTCAKCNHGFCWRCLKSWKPNHKD [K1C] | -1.12 ± 0.26 |
| ERCPSCQAPIEKNEGCLHMTCAKCNHGFCWRCLKSWKPNHKD [K1E] | -0.586 ± 0.11 |
| FRCPSCQAPIEKNEGCLHMTCAKCNHGFCWRCLKSWKPNHKD [K1F] | -0.735 ± 0.39 |
